Patent US20260167699A1 (Chugai, published 2026)
Changes are numbered by the printed parent chain.

T1: FcγRIIa(H) extracellular domain with C-terminal His tag (human, UniProt P12318 34-217)
T1 construct: extracellular domain; H131 allotype; also called 2aH; CD32
T1 sequence: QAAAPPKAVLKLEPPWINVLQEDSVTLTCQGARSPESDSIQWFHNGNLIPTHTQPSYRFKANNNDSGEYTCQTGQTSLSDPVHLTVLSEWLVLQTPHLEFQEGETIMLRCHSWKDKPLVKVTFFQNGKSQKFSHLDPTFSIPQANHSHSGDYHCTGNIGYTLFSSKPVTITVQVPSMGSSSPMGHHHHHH

T2: FcγRIIa(R) extracellular domain with C-terminal His tag (human, UniProt P12318 34-217)
T2 construct: extracellular domain; R131 allotype; also called 2aR; CD32
T2 sequence: T1 sequence with H134R

T3: FcγRIIb extracellular domain with C-terminal His tag (human, UniProt P31994 43-217)
T3 construct: extracellular domain; also called 2b; CD32
T3 sequence: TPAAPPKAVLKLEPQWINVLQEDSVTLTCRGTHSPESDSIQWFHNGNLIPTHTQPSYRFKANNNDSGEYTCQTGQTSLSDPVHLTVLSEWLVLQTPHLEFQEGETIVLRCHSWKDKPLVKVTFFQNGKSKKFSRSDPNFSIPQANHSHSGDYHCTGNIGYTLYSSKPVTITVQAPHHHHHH

B1: GpH7-A5/GpH7-B3 variant E333_19Q/GpL16-k0 (antibody, human IgG1, kappa)
heavy 1: not shown
heavy 2: not shown
light: DIVMTQSPLSLPVTPGEPASISCQASESLVHSNRNTYLHWYLQKPGQSPQLLIYKVSNRFSGVPDRFSGSGSGTDFTLKISRVEAEDVGVYYCSQNTHVPPTFGQGTKVEIERTVAAPSVFIFPPSDEQLKSGTASVVCLLNNFYPREAKVQWKVDNALQSGNSQESVTEQDSKDSTYSLSSTLTLSKADYEKHKVYACEVTHQGLSSPVTKSFNRGEC
notes: heterodimerized IgG1 (He Ab), mutation in one H chain only; also called He Ab
B2: GpH7-A5/GpH7-B3 variant E333_20W/GpL16-k0 (antibody, human IgG1, kappa)
heavy 1: not shown
heavy 2: not shown
light: B1 light
notes: as for B1
B3: GpH7-A5/GpH7-B3 variant I332_01G/GpL16-k0 (antibody, human IgG1, kappa)
heavy 1: not shown
heavy 2: not shown
light: B1 light
notes: as for B1
B4: GpH7-A5/GpH7-B3 variant I332_02A/GpL16-k0 (antibody, human IgG1, kappa)
heavy 1: not shown
heavy 2: not shown
light: B1 light
notes: as for B1
B5: GpH7-A5/GpH7-B3 variant I332_03V/GpL16-k0 (antibody, human IgG1, kappa)
heavy 1: not shown
heavy 2: not shown
light: B1 light
notes: as for B1
B6: GpH7-A5/GpH7-B3 variant I332_04F/GpL16-k0 (antibody, human IgG1, kappa)
heavy 1: not shown
heavy 2: not shown
light: B1 light
notes: as for B1
B7: GpH7-A5/GpH7-B3 variant I332_05P/GpL16-k0 (antibody, human IgG1, kappa)
heavy 1: not shown
heavy 2: not shown
light: B1 light
notes: as for B1
B8: GpH7-A5/GpH7-B3 variant I332_06M/GpL16-k0 (antibody, human IgG1, kappa)
heavy 1: not shown
heavy 2: not shown
light: B1 light
notes: as for B1
B9: GpH7-A5/GpH7-B3 variant I332_08L/GpL16-k0 (antibody, human IgG1, kappa)
heavy 1: not shown
heavy 2: not shown
light: B1 light
notes: as for B1
B10: GpH7-A5/GpH7-B3 variant I332_09D/GpL16-k0 (antibody, human IgG1, kappa)
heavy 1: not shown
heavy 2: not shown
light: B1 light
notes: as for B1
B11: GpH7-A5/GpH7-B3 variant I332_10E/GpL16-k0 (antibody, human IgG1, kappa)
heavy 1: not shown
heavy 2: not shown
light: B1 light
notes: as for B1
B12: GpH7-A5/GpH7-B3 variant I332_12R/GpL16-k0 (antibody, human IgG1, kappa)
heavy 1: not shown
heavy 2: not shown
light: B1 light
notes: as for B1
B13: GpH7-A5/GpH7-B3 variant I332_13S/GpL16-k0 (antibody, human IgG1, kappa)
heavy 1: not shown
heavy 2: not shown
light: B1 light
notes: as for B1
B14: GpH7-A5/GpH7-B3 variant I332_14T/GpL16-k0 (antibody, human IgG1, kappa)
heavy 1: not shown
heavy 2: not shown
light: B1 light
notes: as for B1
B15: GpH7-A5/GpH7-B3 variant I332_15Y/GpL16-k0 (antibody, human IgG1, kappa)
heavy 1: not shown
heavy 2: not shown
light: B1 light
notes: as for B1
B16: GpH7-A5/GpH7-B3 variant I332_16H/GpL16-k0 (antibody, human IgG1, kappa)
heavy 1: not shown
heavy 2: not shown
light: B1 light
notes: as for B1
B17: GpH7-A5/GpH7-B3 variant I332_18N/GpL16-k0 (antibody, human IgG1, kappa)
heavy 1: not shown
heavy 2: not shown
light: B1 light
notes: as for B1
B18: GpH7-A5/GpH7-B3 variant I332_19Q/GpL16-k0 (antibody, human IgG1, kappa)
heavy 1: not shown
heavy 2: not shown
light: B1 light
notes: as for B1
B19: GpH7-A5/GpH7-B3 variant I332_20W/GpL16-k0 (antibody, human IgG1, kappa)
heavy 1: not shown
heavy 2: not shown
light: B1 light
notes: as for B1
B20: GpH7-A5/GpH7-B3 variant I336_01G/GpL16-k0 (antibody, human IgG1, kappa)
heavy 1: not shown
heavy 2: not shown
light: B1 light
notes: as for B1
B21: GpH7-A5/GpH7-B3 variant I336_02A/GpL16-k0 (antibody, human IgG1, kappa)
heavy 1: not shown
heavy 2: not shown
light: B1 light
notes: as for B1
B22: GpH7-A5/GpH7-B3 variant I336_03V/GpL16-k0 (antibody, human IgG1, kappa)
heavy 1: not shown
heavy 2: not shown
light: B1 light
notes: as for B1
B23: GpH7-A5/GpH7-B3 variant I336_04F/GpL16-k0 (antibody, human IgG1, kappa)
heavy 1: not shown
heavy 2: not shown
light: B1 light
notes: as for B1
B24: GpH7-A5/GpH7-B3 variant I336_06M/GpL16-k0 (antibody, human IgG1, kappa)
heavy 1: not shown
heavy 2: not shown
light: B1 light
notes: as for B1
B25: GpH7-A5/GpH7-B3 variant I336_08L/GpL16-k0 (antibody, human IgG1, kappa)
heavy 1: not shown
heavy 2: not shown
light: B1 light
notes: as for B1
B26: GpH7-A5/GpH7-B3 variant I336_09D/GpL16-k0 (antibody, human IgG1, kappa)
heavy 1: not shown
heavy 2: not shown
light: B1 light
notes: as for B1

target: T4, FcγRIIIa extracellular domain with C-terminal His tag (human, UniProt P08637 17-208); assay: SPR; % of GpH7-A5/GpH7-B3/GpL16-k0
T4 construct: extracellular domain; also called 3a; CD16
T4 sequence (P08637 other isoform, or with tags, fused parts or gaps): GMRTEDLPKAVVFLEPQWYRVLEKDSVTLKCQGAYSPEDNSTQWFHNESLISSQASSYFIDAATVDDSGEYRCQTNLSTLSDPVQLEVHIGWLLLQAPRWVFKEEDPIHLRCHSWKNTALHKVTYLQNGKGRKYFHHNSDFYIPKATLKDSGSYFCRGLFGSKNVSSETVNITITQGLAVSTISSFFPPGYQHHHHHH

Row | He/Con 3a [%] | Binder
1 | 101 | B1
2 | 104 | B2
3 | 101 | B3
4 | 103 | B4
5 | 85.2 | B5
6 | 89.3 | B6
7 | 56.3 | B7
8 | 92.5 | B8
9 | 76 | B9
10 | 189 | B10
11 | 213 | B11
12 | 78.1 | B12
13 | 95.6 | B13
14 | 110 | B14
15 | 92.4 | B15
16 | 89 | B16
17 | 84.9 | B17
18 | 101 | B18
19 | 116 | B19
20 | 94.6 | B20
21 | 106 | B21
22 | 107 | B22
23 | 93.2 | B23
24 | 104 | B24
25 | 102 | B25
26 | 102 | B26

target: T1, FcγRIIa(H) extracellular domain with …; assay: SPR; % of GpH7-A5/GpH7-B3/GpL16-k0

Row | He/Con 2aH [%] | Binder
27 | 113 | B1
28 | 106 | B2
29 | 102 | B3
30 | 115 | B4
31 | 108 | B5
32 | 108 | B6
33 | 69.9 | B7
34 | 114 | B8
35 | 94.9 | B9
36 | 122 | B10
37 | 112 | B11
38 | 104 | B12
39 | 113 | B13
40 | 119 | B14
41 | 119 | B15
42 | 113 | B16
43 | 114 | B17
44 | 112 | B18
45 | 115 | B19
46 | 100 | B20
47 | 102 | B21
48 | 106 | B22
49 | 98.3 | B23
50 | 110 | B24
51 | 109 | B25
52 | 100 | B26

target: T5, FcγRIa extracellular domain with C-terminal His tag (human, UniProt P12314 16-292); assay: SPR; % of GpH7-A5/GpH7-B3/GpL16-k0
T5 construct: extracellular domain; also called 1a; CD64
T5 sequence (P12314 other isoform, or with tags, fused parts or gaps): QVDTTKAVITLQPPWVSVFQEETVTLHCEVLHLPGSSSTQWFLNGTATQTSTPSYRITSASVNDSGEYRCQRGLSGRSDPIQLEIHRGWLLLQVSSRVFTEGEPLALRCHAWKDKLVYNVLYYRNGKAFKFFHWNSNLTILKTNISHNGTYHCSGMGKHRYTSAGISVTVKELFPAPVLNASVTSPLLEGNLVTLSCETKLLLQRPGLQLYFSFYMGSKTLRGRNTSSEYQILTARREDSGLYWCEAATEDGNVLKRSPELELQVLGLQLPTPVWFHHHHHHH

Row | He/Con 1a [%] | Binder
53 | 93.7 | B1
54 | 93.9 | B2
55 | 102 | B3
56 | 100 | B4
57 | 100 | B5
58 | 106 | B6
59 | 99.2 | B7
60 | 105 | B8
61 | 104 | B9
62 | 106 | B10
63 | 109 | B11
64 | 102 | B12
65 | 97.3 | B13
66 | 104 | B14
67 | 101 | B15
68 | 100 | B16
69 | 99.3 | B17
70 | 103 | B18
71 | 104 | B19
72 | 112 | B20
73 | 109 | B21
74 | 108 | B22
75 | 109 | B23
76 | 112 | B24
77 | 111 | B25
78 | 107 | B26

target: T2, FcγRIIa(R) extracellular domain with …; assay: SPR; % of GpH7-A5/GpH7-B3/GpL16-k0

Row | He/Con 2aR [%] | Binder
79 | 130 | B1
80 | 132 | B2
81 | 92.2 | B3
82 | 96.9 | B4
83 | 87 | B5
84 | 104 | B6
85 | 80.5 | B7
86 | 108 | B8
87 | 91 | B9
88 | 118 | B10
89 | 113 | B11
90 | 73.5 | B12
91 | 97.9 | B13
92 | 104 | B14
93 | 109 | B15
94 | 97.6 | B16
95 | 98.3 | B17
96 | 95.1 | B18
97 | 117 | B19
98 | 104 | B20
99 | 100 | B21
100 | 104 | B22
101 | 105 | B23
102 | 112 | B24
103 | 116 | B25
104 | 104 | B26

target: T3, FcγRIIb extracellular domain with …; assay: SPR; % of GpH7-A5/GpH7-B3/GpL16-k0

Row | He/Con 2b [%] | Binder
105 | 110 | B1
106 | 116 | B2
107 | 96.6 | B3
108 | 114 | B4
109 | 89.5 | B5
110 | 115 | B6
111 | 83.7 | B7
112 | 116 | B8
113 | 91.3 | B9
114 | 163 | B10
115 | 158 | B11
116 | 60.9 | B12
117 | 109 | B13
118 | 118 | B14
119 | 112 | B15
120 | 103 | B16
121 | 99.6 | B17
122 | 104 | B18
123 | 102 | B19
124 | 98.4 | B20
125 | 92.8 | B21
126 | 98.7 | B22
127 | 99.6 | B23
128 | 111 | B24
129 | 117 | B25
130 | 101 | B26
